Measured values published in patent US10400249B2, “HPPD variants and methods of use” (priority 2014, dated 2019).
Changes are numbered by the printed parent chain. Numbers in names are those of the source.

B1: K303: PfHPPD variant L200I, P215L, E335P, G336F, A340E (protein)
chain: MADLYENPMGLMGFEFIEFASPTPGTLEPIFEIMGFTKVATHRSKNVHLYRQGEINLILNNEPNSIASYFAAEHGPSVCGMAFRVKDSQKAYNRALELGAQPIHIDTGPMELNLPAIKGIGGAPLYLIDRFGEGSSIYDIDFVYLEGVERNPVGAGLKVIDHLTHNVYRGRMVYWANFYEKLFNFREARYFDIKGEYTGITSKAMSAPDGMIRILLNEESSKGAGQIEEFLMQFNGEGIQHVAFLTDDLVKTWDALKKIGMRFMTAPPDTYYEMLEGRLPDHGEPVDQLQARGILLDGSSVEGDKRLLLQIFSETLMGPVFFEFIQRKGDDGFGPFNFKELFESIERDQVRRGVLTAD
modifications: HPPD variant - K303
notes: PfHPPD variant L200I, P215L, E335P, G336F, A340E
B2: K304: PfHPPD variant L200M, P215L, E335P, G336F, A340E (protein)
chain: B1 chain with I200M
modifications: HPPD variant - K304
notes: PfHPPD variant L200M, P215L, E335P, G336F, A340E
B3: K360: PfHPPD variant L200I, E335P, G336F, A340E (protein)
chain: B1 chain with L215P
modifications: HPPD variant - K360
notes: PfHPPD variant L200I, E335P, G336F, A340E
B4: PfG336F: reference PfHPPD mutant G336F (protein)
chain: B1 chain with I200L, L215P, P335E, E340A
modifications: HPPD variant - Pf336F
B5: PfEvo33: reference PfHPPD mutant E335P, G336W (protein)
chain: B1 chain with I200L, L215P, F336W, E340A
modifications: HPPD variant - PfEvo33
B6: PfG336W: reference PfHPPD mutant G336W (protein)
chain: B1 chain with I200L, L215P, P335E, F336W, E340A
modifications: HPPD variant - Pf336W
B7: PfG336Y: reference PfHPPD mutant G336Y (protein)
chain: B1 chain with I200L, L215P, P335E, F336Y, E340A
modifications: HPPD variant - Pf336Y
B8: K361: PfHPPD variant L200M, E335P, G336F, A340E (protein)
chain: B1 chain with I200M, L215P
modifications: HPPD variant - K361
notes: PfHPPD variant L200M, E335P, G336F, A340E

What follows are molecules tested on Pseudomonas fluorescens HPPD protein (assay: OD assay: HPPD activity and pI50 from HPP remaining after derivatisation with DNP). Conditions: HPPD enzyme activity of the clone.
Assay type: biochemical
Method in brief: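 Purified Pseudomonas fluorescens HPPD, room temperature. OD assay: 50 mM Tris-HCl pH 7.8, 0.5 mM HPP, 10 mM ascorbate, catalase, 24 min, remaining HPP derivatised with DNP, read at 405 nm, inhibitor 5.0×10^−6 to 5.0×10^−4 M. HGD assay: 200 mM Tris-HCl pH 7.6, 600 μM HPP, 20 μM FeSO4, coupled HGA dioxygenase, initial rates at 318 nm, inhibitor ≤100 μM, time-course gives inhibition type; pI50 from 4-parameter fits.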

Molecule	Activity DeltaE/24 min μg Protein [DeltaE/24 min μg Protein]
B1	0.008
B2	0.011
B3	0.28
B4	0.66
B5	0.25
B6	0.40
B7	0.66
B8	0.21

Same assay, conditions: inhibitor Cmpd. 2

Molecule	tolerance (pI50) Cmpd. 2
B1	4.6
B2	4.6
B3	5.3
B8	5.2

Same assay, conditions: inhibitor diketonitrile (DKN), negative log of molar concentration

Molecule	tolerance (pI50) DKN
B3	3.6
B4	5.3
B5	4.3
B6	5.0
B7	5.2
B8	3.4

Same assay, conditions: inhibitor mesotrione (MST)

Molecule	tolerance (pI50) MST
B1	3.2
B2	3.2
B3	4.3
B4	5.6
B5	5.1
B6	5.3
B7	5.5
B8	4.0

Same assay, conditions: inhibitor tembotrione (TBT)

Molecule	tolerance (pI50) TBT
B1	4.2
B2	4.2
B3	5.3
B8	5.1

These molecules were tested on Pseudomonas fluorescens HPPD protein (assay: HGD assay: HPPD activity coupled to HGA dioxygenase, pI50 and type of inhibition (time-course)). Conditions: not given.
Assay type: biochemical
Description: HPPD proteins were produced and purified as described in WO2011/076882. The activity of HPPD proteins in absence or presence of HPPD inhibitors was determined using either the so called OD assay or the HGD assay.
• a) The OD assay: The HPPD activity was determined colourimetrically by measuring the amount of HPP remaining in the assay mixture at the end of the incubation period after derivatisation of HPP with 2,4-dinitrophenylhydrazine (DNP) to form an amber-brown colored 2,4-dinitrophenylhydrazone under alkaline conditions. The assay was carried out at room temperature in Greiner F-bottom 96 well microplates. The assay mixture contained 50 mM Tris-HCl pH 7.8, 0.5 mM HPP, 10 mM ascorbate, 650 units of catalase and appropriate amounts of purified HPPD enzyme in a total assay volume of 100 μl. The reaction was started by the addition of enzyme. After an incubation time of 24 minutes, the reaction was stopped by the addition of 50 μl of a solution of 0.04% DNP dissolved in 3.8 N HCl. After a further 15-minute incubation period 100 μl of a 5 N KOH solution was added to the reaction mixture and the amount of unconsumed HPP was measured photometrically at 405 nm. Enzyme activity was calculated as the difference in E405 between assays lacking enzyme (negative control) and the enzyme containing assays (ΔE405=E405(negative control)−E405). Enzyme activity (nmol substrate consumed per min) was calculated from a calibration curve generated from HPP. pI50-values (the negative log value of the concentration of inhibitor necessary to inhibit 50% of the enzyme activity in molar concentration were determined from dose-response plots of HPPD activity versus inhibitor concentration tested (5.0×10^−6, 1.0×10^−5, 2.5×10^−5, 4.0×10^−5, 7.0×10^−5, 1.0×10^−4, 2.0×10^−4 and 5.0×10^−4M) using the 4 Parameter Logistic Model or Sigmoidal Dose-Response Model of the ID Business Solutions Ltd. XLfit software suite. The result “>5.6” means that the inhibition at the lowest inhibitor concentration tested was higher than 85% and the pI50-value could therefore not be precisely calculated within in the range of concentration of inhibitor tested. The result “<2.5” means that the inhibition at the highest inhibitor concentration tested was lower than 25% and the pI50-value could therefore not be precisely calculated within in the range of concentration of inhibitor tested. “n.d.” means not determined. • b) The HGD assay: With the HGD assay HPPD activity was measured at room temperature by adding appropriate amounts of HPPD to a solution of 200 mM Tris-HCl pH 7.6, 10 mM ascorbate, 20 μM FeSO4, 650 units of catalase, 8 μg HGA dioxygenase (HGA: homogentisate) and 600 μM HPP in a total volume of 1 ml. Initial reaction rates in the absence or presence of inhibitors were determined from the increase in absorbance at 318 nm due to the formation of maleylacetoacetate (ε318=11,900 M−1 cm-1). pI50-values (the negative log value of the concentration of inhibitor necessary to inhibit 50% of the enzyme activity in molar concentration were determined from dose-response plots of HPPD activity versus inhibitor concentration tested using the 4 Parameter Logistic Model or Sigmoidal Dose-Response Model of the ID Business Solutions Ltd. XLfit software suite. Due to the UV absorption of the HPPD inhibitors tested, inhibitor concentrations >100 μM could not be tested. The result “<4” means that the inhibition at 100 μM inhibitor concentration was lower than 25% and the pI50-value could therefore not be precisely calculated within in the range of concentration of inhibitor tested. “n.d.” means not determined. The HGD assay allowed to continuously follow HPPD-catalyzed HGA formation over time was therefore used to determine the inhibition type of the HPPD inhibitors tested. […] When in the presence of an inhibitor the HPPD activity was inhibited but the inhibition was found not to […] in a time-dependent manner, the inhibitor was called reversible (abbreviation “rev”). […]

Molecule	mechanism of inhibition by Cmpd. 2, time-course of inhibition
B1	fully reversible inhibitor
B2	fully reversible inhibitor
B3	fully reversible inhibitor
B8	fully reversible inhibitor

Same assay, conditions: assay not given, follows the time-course analysis (HGD assay)

Molecule	pI50-values of Cmpd. 2
B1	5.0
B2	4.7
B3	5.5
B8	5.3

Same assay, conditions: inhibitor Cmpd. 1; HGD assay

Molecule	tolerance (pI50) Cmpd. 1
B6	6.2

Same assay, conditions: inhibitor Cmpd. 2; HGD assay

Molecule	tolerance (pI50) Cmpd. 2
B6	6.8

Same assay, conditions: inhibitor Cmpd. 3; HGD assay

Molecule	tolerance (pI50) Cmpd. 3
B6	6.4

Same assay, conditions: inhibitor Cmpd. 4; HGD assay

Molecule	tolerance (pI50) Cmpd. 4
B6	6.7

Same assay, conditions: inhibitor Cmpd. 5; HGD assay

Molecule	tolerance (pI50) Cmpd. 5
B6	6.1

Same assay, conditions: inhibitor diketonitrile (DKN); HGD assay

Molecule	tolerance (pI50) DKN
B4	5.1
B5	4.6
B7	4.9

Same assay, conditions: inhibitor mesotrione (MST); HGD assay

Molecule	tolerance (pI50) MST
B4	5.1
B5	5.5
B6	5.5
B7	5.0

Same assay, conditions: inhibitor tembotrione (TBT); HGD assay

Molecule	tolerance (pI50) TBT
B4	5.9
B5	6.2
B6	6.1

These molecules were tested on T0 soybean plants (assay: greenhouse spray test of T0 soybean plants for tolerance to mesotrione). Conditions: Callisto 4 SC formulation, 3× field rate, 316 grams AI per hectare, one week after spraying.
Assay type: in vivo
Description: T0 soybean plants expressing an HPPD inhibitor tolerant enzyme of the present invention, along with a gene conferring tolerance to glyphosate and a gene conferring tolerance to glufosinate or having a “plant expression cassette”, which includes only an HPPD inhibitor tolerant enzyme of the present invention, were tested for tolerance to mesotrione. Prior greenhouse trials with the transgenic plants, soy transformants were routinely analyzed for the expression and presence of the transgenes using the ELISA protein detection method (see detailed description under item D and H). Only plants recovering in the selection media and having a detectable HPPD transgene protein expression were used for the herbicide tolerance analysis. A DeVries Tracker Sprayer was calibrated prior to each spraying. The chemical formulation used for mesotrione (MST) testing was Callisto® 4 SC formulation supplemented with ammonium sulfate and methylated rape seed oil (Actirob). Spray tests were conducted using 3× the field rate (equivalent to 9 fluid ounce per acre of the same herbicide formulation that containing 40% the active ingredient (AI), mesotrione), which equals 316 grams AI per hectare. Tolerance was evaluated one week after spraying. […] A tolerance rating of “0” was assigned to plants that their shoot apexes, newly emerged trifoliates and some axillary buds were completely bleached. A rating of “1” was assigned to plants having slight tolerance, i.e., the newest plant shoot tissues had some green leaves and are not bleached completely. A rating of “2” was assigned to plants showing moderate tolerance, i.e., more than 50% of the leaf area of the top three trifoliates showing no chlorosis or bleaching damage. A rating of “3” was assigned to plants showing nearly perfect tolerance, i.e., less than 10% of the leaf area showing chlorosis or very slight bleaching.

Molecule	leaf damage of wild type soybean plants [%]
CS(=O)(=O)c1ccc(C(=O)C2C(=O)CCCC2=O)c([N+](=O)[O-])c1 [mesotrione, 2-[4-(methylsulfonyl)-2-nitrobenzoyl]-1,3-cyclohexanedione, reference compound]	100
